Source: the MegaScale stability set (Tsuboyama et al. 2023)

B1: r16_88_TrROS_Hall (parent)
chain: EVIELKIKFKTPEQREKLKEIAKKLNAEVVEEKDGEVIIRFKTPEQAERALKEAEKLGAEVEL

Variants of: B1
Assay: folding stability dG (cDNA display proteolysis); higher = more stable
Conditions: PBS, room temperature

In order of rising “folding stability dG” value:
1. EVIELKIKFKTPEQREKLKEIAKKLNAEVVEEKDGEVIDRFKTPEQAERALKEAEKLGAEVEL  0.533 kcal/mol
2. EVIELKIKFKTPEQREKPKEIAKKLNAEVVEEKDGEVIIRFKTPEQAERALKEAEKLGAEVEL  1.65 kcal/mol
3. EVIEPKIKFKTPEQREKLKEIAKKLNAEVVEEKDGEVIIRFKTPEQAERALKEAEKLGAEVEL  2.55 kcal/mol
4. EVIELKIKFKTPEQREKLKEIAKKLNAEVVEEKDGEVIIRFKTPEQAERRLKEAEKLGAEVEL  2.59 kcal/mol
5. EVIELKQKFKTPEQREKLKEIAKKLNAEVVEEKDGEVIIRFKTPEQAERALKEAEKLGAEVEL  3.21 kcal/mol
6. EVIELKIKFKTPEQREKLKEIAKKLNAEVVEEKDGEVIIRFKTPEQAERALKEAEKPGAEVEL  3.32 kcal/mol
7. EVIELKIKFKPPEQREKLKEIAKKLNAEVVEEKDGEVIIRFKTPEQAERALKEAEKLGAEVEL  3.48 kcal/mol
8. EVIELKIKFKTPEQREKLKEIAKKLNAEVVEEKDGEVIIRFKTPEQAERALKEAEKLGAEWEL  3.96 kcal/mol
9. EVIELKIKIKTPEQREKLKEIAKKLNAEVVEEKDGEVIIRFKTPEQAERALKEAEKLGAEVEL  3.96 kcal/mol
10. KVIELKIKFKTPEQREKLKEIAKKLNAEVVEEKDGEVIIRFKTPEQAERALKEAEKLGAEVEL  4 kcal/mol
11. EVIELKIKFKTPEQREKLKEIAKKLNAEVVEEKDGEVIIRFKTPEQAERALKEAEKLGIEVEL  4.01 kcal/mol
12. EVIELGIKFKTPEQREKLKEIAKKLNAEVVEEKDGEVIIRFKTPEQAERALKEAEKLGAEVEL  4.02 kcal/mol
13. EVIELKIKPKTPEQREKLKEIAKKLNAEVVEEKDGEVIIRFKTPEQAERALKEAEKLGAEVEL  4.02 kcal/mol
14. EVIELKIKFKTPEQREKLKEIAKKLNAEVVEEKDGEVIIRFGTPEQAERALKEAEKLGAEVEL  4.03 kcal/mol
15. EVIELKIKFKTPEQREKLKEIAKKLNAEVVPEKDGEVIIRFKTPEQAERALKEAEKLGAEVEL  4.06 kcal/mol
16. EVIELKIKFKTPEQREKLKEIAKKLNAEVVEEKDGEVIIRFKTPEQAERALKEAEKLGAFVEL  4.07 kcal/mol
17. EVIELKIKFKTPEQREKLKEIAKKLNAEVPEEKDGEVIIRFKTPEQAERALKEAEKLGAEVEL  4.07 kcal/mol
18. EVIELKINFKTPEQREKLKEIAKKLNAEVVEEKDGEVIIRFKTPEQAERALKEAEKLGAEVEL  4.08 kcal/mol
19. EVIELKIKFKTPEQREKLKEIAKKLNAEVVEEKDGEVIIRFKTEEQAERALKEAEKLGAEVEL  4.1 kcal/mol
20. EVIELKIKFKTPEQREKTKEIAKKLNAEVVEEKDGEVIIRFKTPEQAERALKEAEKLGAEVEL  4.15 kcal/mol
21. EVIELKIKFKTPEQREKLKEIAKKLNAMVVEEKDGEVIIRFKTPEQAERALKEAEKLGAEVEL  4.17 kcal/mol
22. EVIELKIKFKTPEQREKLKEIAKKLNAEVVEEKDGEVIIRFKTPEQAIRALKEAEKLGAEVEL  4.17 kcal/mol
23. EVIELKIKFKTPEQREKLKEIAKKLNAEVVEEKDGEVIIRFKTPEEAERALKEAEKLGAEVEL  4.18 kcal/mol
24. EVIELKIKFKTPEQREKLKEIAKKLNAEVVEEKDYEVIIRFKTPEQAERALKEAEKLGAEVEL  4.18 kcal/mol
25. EVIELKIKFFTPEQREKLKEIAKKLNAEVVEEKDGEVIIRFKTPEQAERALKEAEKLGAEVEL  4.18 kcal/mol
26. EVIELKIKFKTPEQREKLKEIAKKLNAEVVEEKDGEVIIRFKTPEQAERALKEAEKLGEEVEL  4.23 kcal/mol
27. EVIELKIKFKTPEQREKLKEIAKKLNAEVVEEKDGEVIIRFKTPEQAERALKEAEKLYAEVEL  4.25 kcal/mol
28. EVIELKIKFKTPEQREKLKEIAKKLNAEVVEEKPGEVIIRFKTPEQAERALKEAEKLGAEVEL  4.26 kcal/mol
29. EVIELKIKFKTPEQREKLKEIAKKLNAEVVEEKDGEVIIRFKTPEQAERALKEAEKLGASVEL  4.28 kcal/mol
30. EVIELKIKFKTPECREKLKEIAKKLNAEVVEEKDGEVIIRFKTPEQAERALKEAEKLGAEVEL  4.28 kcal/mol
31. EVIECKIKFKTPEQREKLKEIAKKLNAEVVEEKDGEVIIRFKTPEQAERALKEAEKLGAEVEL  4.29 kcal/mol
32. EVIELKIKFKTPEQREKLKEIAKKLNAEVVEEKDGEVIIRFKTPSQAERALKEAEKLGAEVEL  4.29 kcal/mol
33. EVIELKIKFKTPEQREKLKEIAKKLNAEVVEEKDGEVIIRFKTPEQAERANKEAEKLGAEVEL  4.3 kcal/mol
34. EVIELKIKFKTPEQREKLKEIAKKLNAEVVEEKLGEVIIRFKTPEQAERALKEAEKLGAEVEL  4.3 kcal/mol
35. EVIELKIKFKTPEQREKLKEIAKKLCAEVVEEKDGEVIIRFKTPEQAERALKEAEKLGAEVEL  4.33 kcal/mol
36. EVIELKIKFKQPEQREKLKEIAKKLNAEVVEEKDGEVIIRFKTPEQAERALKEAEKLGAEVEL  4.33 kcal/mol
37. EVIELKIKFKTPEQREKLKEIAKKLNAEVVEWKDGEVIIRFKTPEQAERALKEAEKLGAEVEL  4.34 kcal/mol
38. EVIELKIKFKTPEQREKLKEIAKKCNAEVVEEKDGEVIIRFKTPEQAERALKEAEKLGAEVEL  4.35 kcal/mol
39. EVIELKIKFKTPEQIEKLKEIAKKLNAEVVEEKDGEVIIRFKTPEQAERALKEAEKLGAEVEL  4.37 kcal/mol
40. EVIELKIKFKTPEQREKLKEIAKKLNAEVVEEKDGEVIIRFKTPEQAERALKEAEKLGAEVHL  4.37 kcal/mol
41. EVIELKIKFKTPEQREKLKEIAKKLNAEVVEEKDGEVIIRFKTPEQAEAALKEAEKLGAEVEL  4.37 kcal/mol
42. EVIELKIKFKTPVQREKLKEIAKKLNAEVVEEKDGEVIIRFKTPEQAERALKEAEKLGAEVEL  4.37 kcal/mol
43. EVIELKIKFKTPEQRIKLKEIAKKLNAEVVEEKDGEVIIRFKTPEQAERALKEAEKLGAEVEL  4.38 kcal/mol
44. EVIELNIKFKTPEQREKLKEIAKKLNAEVVEEKDGEVIIRFKTPEQAERALKEAEKLGAEVEL  4.39 kcal/mol
45. EVIELKIKFKTPEQREKLKEIAKKLNAEVTEEKDGEVIIRFKTPEQAERALKEAEKLGAEVEL  4.39 kcal/mol
46. EVIELKIKFKTPEQREKLKEIAKKLNAEVWEEKDGEVIIRFKTPEQAERALKEAEKLGAEVEL  4.39 kcal/mol
47. EVIELKIKFKTPEQREKLKEIAKDLNAEVVEEKDGEVIIRFKTPEQAERALKEAEKLGAEVEL  4.39 kcal/mol
48. EVIELKIKFKTPEQREKLKEIAKKLNAEVVEEKDGEVIIRFKTPEQAERALKEAEKLGAEGEL  4.4 kcal/mol
49. EVIELKIKFKTPEQREKLKEIAKKLNAEVVEEKVGEVIIRFKTPEQAERALKEAEKLGAEVEL  4.4 kcal/mol
50. EVIELKIKFKTPEQREKLKSIAKKLNAEVVEEKDGEVIIRFKTPEQAERALKEAEKLGAEVEL  4.41 kcal/mol
51. EVIELKIKFKTPEQREKLKEIAKKLNAEVVEEKDREVIIRFKTPEQAERALKEAEKLGAEVEL  4.42 kcal/mol
52. EVIELKIKFKTPEQREKLKEIAKKLRAEVVEEKDGEVIIRFKTPEQAERALKEAEKLGAEVEL  4.42 kcal/mol
53. EVIELKIKFKTPEQREKLKEIAKKLNAEVVENKDGEVIIRFKTPEQAERALKEAEKLGAEVEL  4.43 kcal/mol
54. EVIELKIKFKTPEQREKLKEIAKKLNAEVVEEKDGEVIVRFKTPEQAERALKEAEKLGAEVEL  4.44 kcal/mol
55. EVIELKIKFKTPEQREKLKEIAKKLNAEVLEEKDGEVIIRFKTPEQAERALKEAEKLGAEVEL  4.44 kcal/mol
56. EVIELKIKFKTPEQREKLKEIAKKLNAEVVEEKDGEVIIRFKTPEQAERALKESEKLGAEVEL  4.45 kcal/mol
57. EVIELKIKFKTPEQREKLKEIAKKLNAEVVDEKDGEVIIRFKTPEQAERALKEAEKLGAEVEL  4.45 kcal/mol
58. EVPELKIKFKTPEQREKLKEIAKKLNAEVVEEKDGEVIIRFKTPEQAERALKEAEKLGAEVEL  4.46 kcal/mol
59. EVIELKIKFKTPEQREKLKEIAKKLNAEVVEEKDGEVIIRFKTPEQAERALKEAIKLGAEVEL  4.46 kcal/mol
60. EVIELKIKFKTPEQREKLKEIAKKLNAEVVEEKDGEVIIRFKTPEQADRALKEAEKLGAEVEL  4.47 kcal/mol
61. EVIELKIKFKTPEQREKLKEIAKKLNAEVVEEKDGEVIIRFKTPEQAERALKEAESLGAEVEL  4.51 kcal/mol
62. EVIELKIKFKTPEQREKLKEIAKKLNAEVNEEKDGEVIIRFKTPEQAERALKEAEKLGAEVEL  4.52 kcal/mol
63. EVIELKIKFKTPEQREKLKEIAKKLNAEVVEEKDGEVIIRFKTPEQAHRALKEAEKLGAEVEL  4.52 kcal/mol
64. EVIELKIKFKTPEQREALKEIAKKLNAEVVEEKDGEVIIRFKTPEQAERALKEAEKLGAEVEL  4.54 kcal/mol
65. EVIELKIKFKTPEQREKLKEIASKLNAEVVEEKDGEVIIRFKTPEQAERALKEAEKLGAEVEL  4.55 kcal/mol
66. EVIELKIKFKTPEQREKLKEIAKQLNAEVVEEKDGEVIIRFKTPEQAERALKEAEKLGAEVEL  4.56 kcal/mol
67. EVIELKIKFKTPEQREKLKEIAKKLNAEVVEEKDGEVIIRFKTPEQAERALKEAEKLGAEVDL  4.59 kcal/mol
68. EVIELKIKFKTPEQREKLKEIAKKLNAEVVEEKDGEVIIRFKTMEQAERALKEAEKLGAEVEL  4.59 kcal/mol
69. EVIELKIKFKTPEQREKLKEIAKKLNAEVEEEKDGEVIIRFKTPEQAERALKEAEKLGAEVEL  4.59 kcal/mol
70. EVIELKIKFKTPEQREKLKEIAKKLNAENVEEKDGEVIIRFKTPEQAERALKEAEKLGAEVEL  4.62 kcal/mol
71. EVIELKIKFKTPEQREKLKEIATKLNAEVVEEKDGEVIIRFKTPEQAERALKEAEKLGAEVEL  4.63 kcal/mol
72. EVIELKIKFKTPEQREKLKEIAKKLNAEVVEEKDGEVIIRFKCPEQAERALKEAEKLGAEVEL  4.63 kcal/mol
73. EVIELKIKFKTPEQREKLKEIAKKLNAEVVEEKDGEVIIRFKTLEQAERALKEAEKLGAEVEL  4.65 kcal/mol
74. EVIELKIKFKTPEQREKLKEIAKKLNAEVVEEKDGKVIIRFKTPEQAERALKEAEKLGAEVEL  4.65 kcal/mol
75. EVIELKIKFKTPEQWEKLKEIAKKLNAEVVEEKDGEVIIRFKTPEQAERALKEAEKLGAEVEL  4.66 kcal/mol
76. EVIELKIKFKTPEQREKLKEIAKKLNAEVVEEKDGEVIIFFKTPEQAERALKEAEKLGAEVEL  4.66 kcal/mol
77. EVSELKIKFKTPEQREKLKEIAKKLNAEVVEEKDGEVIIRFKTPEQAERALKEAEKLGAEVEL  4.71 kcal/mol
78. EVIMLKIKFKTPEQREKLKEIAKKLNAEVVEEKDGEVIIRFKTPEQAERALKEAEKLGAEVEL  4.72 kcal/mol
79. EVICLKIKFKTPEQREKLKEIAKKLNAEVVEEKDGEVIIRFKTPEQAERALKEAEKLGAEVEL  4.76 kcal/mol
80. EVIELKIKFKTPEQREKLKEIAKKLNAEVVEEKDGEVIIWFKTPEQAERALKEAEKLGAEVEL  4.77 kcal/mol
81. EVIELKIKFKTPEQREKLKEIAKKLNAEVVEEKDGEVIIRFKTPCQAERALKEAEKLGAEVEL  4.77 kcal/mol
82. EVIELKIKFKTPEQREKLKEIAKYLNAEVVEEKDGEVIIRFKTPEQAERALKEAEKLGAEVEL  4.84 kcal/mol
83. EVIEFKIKFKTPEQREKLKEIAKKLNAEVVEEKDGEVIIRFKTPEQAERALKEAEKLGAEVEL  4.91 kcal/mol
84. EVIELKIKFKTPEQREKLKYIAKKLNAEVVEEKDGEVIIRFKTPEQAERALKEAEKLGAEVEL  4.95 kcal/mol
85. EVIELKIKFKTPFQREKLKEIAKKLNAEVVEEKDGEVIIRFKTPEQAERALKEAEKLGAEVEL  4.99 kcal/mol
